EC50 and IC50 data for 16 molecules are collected here from US20260184794A1, “ANTIBODIES AGAINST INTEGRIN ALPHA 11 BETA 1 AND USES THEREOF” (Momenta Pharmaceuticals, Inc., priority 2022, published 2026).

The labels stand for the following.
B1: A11BB133: 79E3E3 variant; VH SEQ ID NO: 4, VL SEQ ID NO: 21 (antibody, V domains shown)
VH: QIQLVQSGSELKKPGASVKVSCKASGYTFTDYAMNWVRQAPGQGLEWMGWINTQTGKPTYAQGFTGRFVFSLDTSVSTAYLQISSLKAEDTAVYYCTRLGTGNTKGFAYWGQGTLVTVSS
VL: DIQITQSPSSLSASVGDRVTITCKSSQSLLYSENNQDYLAWYQQKPGKVPKLLIYGASNRHTGVPSRFSGSGSGTDFTLTISSLQPEDVATYYCEQTYRYPFTFGQGTKLEIK
B2: A11BB142: 79E3E3 variant; VH SEQ ID NO: 6, VL SEQ ID NO: 22 (antibody, V domains shown)
VH: QIQLVQSGAEVKKPGSSVKVSCKASGYTFTDYAMNWVRQAPGQGLEWMGWINTQTGKPTYAQKFQGRVTFTLDESTSTTYMELSSLRSEDTAVYYCARLGTGNTKGFAYWGQGTLVTVSS
VL: DIQMTQSPSSLSASVGDRVTITCKSSQSLLYSENNQDYLAWYQQKPGKVPKLLIYGASNRHTGVPSRFSGSGSGTDFTLTISSLQPEDVATYYCEQTYRYPFTFGQGTKLEIK
B3: A11BB143: 79E3E3 variant; VH SEQ ID NO: 15, VL SEQ ID NO: 22 (antibody, V domains shown)
VH: QVQLVQSGAEVKKPGSSVKVSCKASGYTFTDYAMNWVRQAPGQGLEWMGWINTQTGKPTYAQKFQGRVTFTLDESTSTAYMELSSLRSEDTAVYYCTRLGTGNTKGFAYWGQGTLVTVSS
VL: DIQMTQSPSSLSASVGDRVTITCKSSQSLLYSENNQDYLAWYQQKPGKVPKLLIYGASNRHTGVPSRFSGSGSGTDFTLTISSLQPEDVATYYCEQTYRYPFTFGQGTKLEIK
B4: A11BB134: 79E3E3 variant; VH SEQ ID NO: 10, VL SEQ ID NO: 22 (antibody, V domains shown)
VH: QIQLVQSGSELKKPGASVKISCKASGYTFTDYAMNWVKQAPGQGLEWMGWINTQTGKPTYAQGFTGRFVFSLDTSVSTAYLQISSLKAEDTAVYFCTRLGTGNTKGFAYWGQGTLVTVSS
VL: DIQMTQSPSSLSASVGDRVTITCKSSQSLLYSENNQDYLAWYQQKPGKVPKLLIYGASNRHTGVPSRFSGSGSGTDFTLTISSLQPEDVATYYCEQTYRYPFTFGQGTKLEIK
B5: A11BB136: 79E3E3 variant; VH SEQ ID NO: 14, VL SEQ ID NO: 22 (antibody, V domains shown)
VH: QIQLVQSGSELKKPGASVKVSCKASGYTFTDYAMNWVRQAPGQGLEWMGWINTQTGKPTYAQGFTGRFVFSLDTSVSTAYLQISSLKAEDTAVYFCTRLGTGNTKGFAYWGQGTLVTVSS
VL: DIQMTQSPSSLSASVGDRVTITCKSSQSLLYSENNQDYLAWYQQKPGKVPKLLIYGASNRHTGVPSRFSGSGSGTDFTLTISSLQPEDVATYYCEQTYRYPFTFGQGTKLEIK
B6: A11BB141: 79E3E3 variant; VH SEQ ID NO: 7, VL SEQ ID NO: 19 (antibody, V domains shown)
VH: QIQLVQSGAEVKKPGSSVKVSCKASGYTFTDYAMNWVRQAPGQGLEWMGWINTQTGKPTYAQKFQGRVTFTLDESTSTTYMELSSLRSEDTAVYYCTRLGTGNTKGFAYWGQGTLVTVSS
VL: DIQITQSPSSLSASVGDRVTITCKSSQSLLYSENNQDYLAWYQQKPGKVPKLLIYGASNRHTGVPSRFSGSGSGTDFTLTISSLQPEDVATYYCEQTYRYPFTFGQGTKLEIK
B7: A11BB139: 79E3E3 variant; VH SEQ ID NO: 5, VL SEQ ID NO: 22 (antibody, V domains shown)
VH: QIQLVQSGAEVKKPGSSVKVSCKASGYTFTDYAMNWVRQAPGQGLEWMGWINTQTGKPTYAQKFQGRVTFTLDESTSTAYMELSSLRSEDTAVYYCTRLGTGNTKGFAYWGQGTLVTVSS
VL: DIQMTQSPSSLSASVGDRVTITCKSSQSLLYSENNQDYLAWYQQKPGKVPKLLIYGASNRHTGVPSRFSGSGSGTDFTLTISSLQPEDVATYYCEQTYRYPFTFGQGTKLEIK
B8: A11BB138: 79E3E3 variant; VH SEQ ID NO: 12, VL SEQ ID NO: 21 (antibody, V domains shown)
VH: QIQLVQSGSELKKPGASVKISCKASGYTFTDYAMNWVRQAPGQGLEWMGWINTQTGKPTYAQGFTGRFVFSLDTSVSTAYLQISSLKAEDTAVYFCTRLGTGNTKGFAYWGQGTLVTVSS
VL: DIQITQSPSSLSASVGDRVTITCKSSQSLLYSENNQDYLAWYQQKPGKVPKLLIYGASNRHTGVPSRFSGSGSGTDFTLTISSLQPEDVATYYCEQTYRYPFTFGQGTKLEIK
B9: A11BB131: 79E3E3 variant; VH SEQ ID NO: 11, VL SEQ ID NO: 21 (antibody, V domains shown)
VH: QIQLVQSGSELKKPGASVKISCKASGYTFTDYAMNWVRQAPGQGLEWMGWINTQTGKPTYAQGFTGRFVFSLDTSVRTAYLQISSLKAEDTAVYFCTRLGTGNTKGFAYWGQGTLVTVSS
VL: DIQITQSPSSLSASVGDRVTITCKSSQSLLYSENNQDYLAWYQQKPGKVPKLLIYGASNRHTGVPSRFSGSGSGTDFTLTISSLQPEDVATYYCEQTYRYPFTFGQGTKLEIK
B10: A11BB140: 79E3E3 variant; VH SEQ ID NO: 7, VL SEQ ID NO: 22 (antibody, V domains shown)
VH: QIQLVQSGAEVKKPGSSVKVSCKASGYTFTDYAMNWVRQAPGQGLEWMGWINTQTGKPTYAQKFQGRVTFTLDESTSTTYMELSSLRSEDTAVYYCTRLGTGNTKGFAYWGQGTLVTVSS
VL: DIQMTQSPSSLSASVGDRVTITCKSSQSLLYSENNQDYLAWYQQKPGKVPKLLIYGASNRHTGVPSRFSGSGSGTDFTLTISSLQPEDVATYYCEQTYRYPFTFGQGTKLEIK
B11: A11BB112: 16E10 variant; VH SEQ ID NO: 49, VL SEQ ID NO: 61 (antibody, V domains shown)
VH: EVQLLESGGGLVQPGGSLRLSCAASGFSFSSSYYMCWVRQAPGKGLEWVSCIGTTRGSTYYADSVKGRFTISRDNSKNTLYLQMNSLRAEDTAVYYCARDATGYRINTIGLYFNLWGQGTLVTVSS
VL: DIVMTQSPDSLAVSLGERATINCQASQTIYSYLSWYQQKPGQPPKLLIYEASKLASGVPDRFSGSGSGTDYTLTISSLQAEDVAVYYCQSYHGTASTEYNTFGGGTKVEIK
B12: A11BB117: 16E10 variant; VH SEQ ID NO: 56, VL SEQ ID NO: 61 (antibody, V domains shown)
VH: EVQLLESGGGLVQPGGSLRLSCAASGFSFSSSYYMSWVRQAPGKGLEWVSAIGTTRGSTYYADSVKGRFTISRDSSKNTVYLQMNSLRAEDTAVYFCARDATGYRINTIGLYFNLWGQGTLVTVSS
VL: DIVMTQSPDSLAVSLGERATINCQASQTIYSYLSWYQQKPGQPPKLLIYEASKLASGVPDRFSGSGSGTDYTLTISSLQAEDVAVYYCQSYHGTASTEYNTFGGGTKVEIK
B13: A11BB121: 16E10 variant; VH SEQ ID NO: 53, VL SEQ ID NO: 61 (antibody, V domains shown)
VH: EVQLLESGGGLVQPGGSLRLSCAASGFSFSSSYYMSWVRQAPGKGLEWVSAIGTTRGSTYYADSVKGRFTISRDNSKNTLYLQMNSLRAEDTAVYYCARDATGYRINTIGLYFNLWGQGTLVTVSS
VL: DIVMTQSPDSLAVSLGERATINCQASQTIYSYLSWYQQKPGQPPKLLIYEASKLASGVPDRFSGSGSGTDYTLTISSLQAEDVAVYYCQSYHGTASTEYNTFGGGTKVEIK
B14: A11BB123: 16E10 variant; VH SEQ ID NO: 47, VL SEQ ID NO: 61 (antibody, V domains shown)
VH: EVQLLESGGGLVQPGGSLRLSCAASGFSFSSSYYMAWVRQAPGKGLEWVSAIGTTRGSTYYADSVKGRFTISRDSSKNTLYLQMNSLRAEDTAVYYCARDATGYRINTIGLYFNLWGQGTLVTVSS
VL: DIVMTQSPDSLAVSLGERATINCQASQTIYSYLSWYQQKPGQPPKLLIYEASKLASGVPDRFSGSGSGTDYTLTISSLQAEDVAVYYCQSYHGTASTEYNTFGGGTKVEIK
B15: A11BB119: 16E10 variant; VH SEQ ID NO: 45, VL SEQ ID NO: 61 (antibody, V domains shown)
VH: EVQLLESGGGLVQPGGSLRLSCAASGFSFSSSYYMAWVRQAPGKGLEWVSAIGTTRGSTYYADSVKGRFTISRDNSKNTLYLQMNSLRAEDTAVYYCARDATGYRINTIGLYFNLWGQGTLVTVSS
VL: DIVMTQSPDSLAVSLGERATINCQASQTIYSYLSWYQQKPGQPPKLLIYEASKLASGVPDRFSGSGSGTDYTLTISSLQAEDVAVYYCQSYHGTASTEYNTFGGGTKVEIK
B16: A11BB114: 16E10 variant; VH SEQ ID NO: 50, VL SEQ ID NO: 61 (antibody, V domains shown)
VH: EVQLLESGGGLVQPGGSLRLSCAASGFSFSSSYYMCWVRQAPGKGLEWVSCIGTTRGSTYYADSVKGRFTISRDNSKNTVYLQMNSLRAEDTAVYYCARDATGYRINTIGLYFNLWGQGTLVTVSS
VL: DIVMTQSPDSLAVSLGERATINCQASQTIYSYLSWYQQKPGQPPKLLIYEASKLASGVPDRFSGSGSGTDYTLTISSLQAEDVAVYYCQSYHGTASTEYNTFGGGTKVEIK

T1 sequence (Q9UKX5 23-1188): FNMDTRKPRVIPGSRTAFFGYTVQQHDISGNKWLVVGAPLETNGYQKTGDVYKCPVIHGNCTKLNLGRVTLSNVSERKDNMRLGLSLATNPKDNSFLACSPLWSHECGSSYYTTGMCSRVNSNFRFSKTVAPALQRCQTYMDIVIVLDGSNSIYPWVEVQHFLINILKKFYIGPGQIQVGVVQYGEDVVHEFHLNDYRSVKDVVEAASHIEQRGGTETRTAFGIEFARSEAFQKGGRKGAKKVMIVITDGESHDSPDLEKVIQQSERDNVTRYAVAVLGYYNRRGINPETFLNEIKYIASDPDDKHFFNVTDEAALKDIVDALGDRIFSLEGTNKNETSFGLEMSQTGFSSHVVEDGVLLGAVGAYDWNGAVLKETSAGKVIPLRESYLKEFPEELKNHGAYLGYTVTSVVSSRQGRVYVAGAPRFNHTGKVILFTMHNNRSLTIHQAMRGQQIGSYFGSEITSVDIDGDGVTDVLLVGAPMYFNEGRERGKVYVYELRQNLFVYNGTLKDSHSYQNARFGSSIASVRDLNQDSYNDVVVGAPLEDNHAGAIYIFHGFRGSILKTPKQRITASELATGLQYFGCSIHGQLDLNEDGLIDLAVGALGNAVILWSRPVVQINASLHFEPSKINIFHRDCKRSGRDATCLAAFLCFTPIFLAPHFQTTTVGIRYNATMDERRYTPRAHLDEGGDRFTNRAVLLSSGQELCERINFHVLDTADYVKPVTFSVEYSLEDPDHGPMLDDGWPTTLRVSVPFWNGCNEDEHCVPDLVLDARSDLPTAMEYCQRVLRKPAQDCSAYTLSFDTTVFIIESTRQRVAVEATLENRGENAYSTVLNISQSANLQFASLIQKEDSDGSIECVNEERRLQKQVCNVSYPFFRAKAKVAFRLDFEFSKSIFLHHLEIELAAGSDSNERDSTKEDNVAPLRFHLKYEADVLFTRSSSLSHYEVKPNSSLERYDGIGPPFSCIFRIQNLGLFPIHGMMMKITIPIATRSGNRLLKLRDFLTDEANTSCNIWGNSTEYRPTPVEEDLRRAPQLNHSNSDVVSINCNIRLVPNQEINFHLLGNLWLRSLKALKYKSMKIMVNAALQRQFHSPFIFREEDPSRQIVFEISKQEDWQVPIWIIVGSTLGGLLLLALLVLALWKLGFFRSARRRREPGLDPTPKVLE
T1 sequence (P05556 21-798 partner): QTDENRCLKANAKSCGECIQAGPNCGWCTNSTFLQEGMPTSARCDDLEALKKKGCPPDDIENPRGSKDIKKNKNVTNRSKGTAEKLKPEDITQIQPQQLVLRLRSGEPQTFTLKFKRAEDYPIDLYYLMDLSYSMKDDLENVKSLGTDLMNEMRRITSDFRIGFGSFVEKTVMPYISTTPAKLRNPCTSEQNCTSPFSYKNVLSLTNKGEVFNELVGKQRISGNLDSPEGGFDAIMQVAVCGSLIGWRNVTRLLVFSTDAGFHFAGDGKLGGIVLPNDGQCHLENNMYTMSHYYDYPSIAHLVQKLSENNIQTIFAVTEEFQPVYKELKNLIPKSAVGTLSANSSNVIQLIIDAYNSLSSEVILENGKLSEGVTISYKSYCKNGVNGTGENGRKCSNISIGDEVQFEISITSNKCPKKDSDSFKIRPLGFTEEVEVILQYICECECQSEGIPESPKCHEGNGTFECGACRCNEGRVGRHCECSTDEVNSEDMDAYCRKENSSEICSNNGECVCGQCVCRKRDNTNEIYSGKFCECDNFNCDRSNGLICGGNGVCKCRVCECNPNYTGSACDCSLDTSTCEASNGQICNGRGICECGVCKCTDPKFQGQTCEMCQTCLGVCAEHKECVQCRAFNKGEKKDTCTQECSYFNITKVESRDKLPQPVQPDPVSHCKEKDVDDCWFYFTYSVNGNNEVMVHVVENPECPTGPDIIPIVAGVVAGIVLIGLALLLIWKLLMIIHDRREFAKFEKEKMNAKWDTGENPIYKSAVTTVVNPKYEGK

The first assay addresses T1, CHO-hu α11 (Homo sapiens, UniProt Q9UKX5).
T1 construct: expressed in transfected cells; host or cells: CHO-K1
Kind of assay: FACS antibody binding to CHO-K1 cells expressing human α11. Conditions: Table 13, 79E3E3 variants. As for the experimental part:
200,000 cells (wild-type CHO-K1 cells or CHO-K1 cells expressing human α11) were incubated with each antibody at desired concentrations in FACS buffer for 30 min at 4° C. Then, the cells were washed with FACS buffer and incubated with secondary antibody at 1:100 dilution for 30 minutes at 4° C. Cells were then washed and fixed with 1% PF A in PBS for 20 minutes at room temperature; washed again and read on a cytometer in FACS buffer.
As usually defined, the EC50 is the concentration that produces a half-maximal response. With B1, a half-maximal response (EC50) required 5.13 nM.

Take B2: the EC50 was found to be 2.07 nM.

On to B3, for which the concentration for a half-maximal effect (EC50) was found to be 2.12 nM.

With B4, it took 3.49 nM to reach a half-maximal effect (EC50).

B5 returned an EC50 of 1.92 nM.

As to B6, the EC50 turned out to be 4.6 nM.

Consider B7, for which the EC50 turned out to be 1.98 nM.

The molecule B8 came in with a 50% effective concentration (EC50) of 4.63 nM.

B9 returned a 50% effective concentration (EC50) of 2.49 nM.

In turn, B10 had a concentration for a half-maximal effect (EC50) of 2.5 nM.

Another assay addresses T1, CHO-hu α11. Kind of assay: Cell adhesion inhibition on type I collagen (xCelligence). The format is cell-based. Conditions: Table 12, 16E10 variants, FIG. 5B; read-out: CHO-α11 Adhesion Inhibition IC50. The protocol: 0.6×10^6 cells/mL were incubated with each antibody at a range of concentrations for 20 minutes at 37° C. E-Plate VIEW 96 PET plate coated with 100 ng/ml type I collagen or PBS overnight at room temperature was blocked in 3% BSA for 1 hour at room temperature. After washing the plate with PBS, cell and antibody mixture was added to the wells and the plate was places into an xCelligence machine. Cell adhesion was recorded over 6 hours. The time point of maximum cell adhesion was used for comparison relative to control.
What is called IC50 is the concentration needed to halve the response being measured. As to B11, the IC50 came out at 0.5 nM.

Turning to B12, the IC50 is 0.7 nM.

Regarding B13, the concentration for half-maximal inhibition (IC50) was found to be 0.5 nM.

Regarding B14, the IC50 was determined as 0.5 nM.

Regarding B15, the IC50 amounted to 0.7 nM.

As to B16, the IC50 came to 0.5 nM.
